This data set has as its system MS2 coat protein. As to the kind of experiment: apparent KD of MS2 coat protein; designed switch direction (-1 OFF switch, 1 ON switch): 1; higher = weaker reporter binding. An outline of the steps: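 RNA switches sharing common flanks were transcribed by stalled E. coli RNA polymerase on Illumina chips. A doubling series of SNAP-549-labelled MS2 coat protein, from 0.7 or 1.5 nM to 3 µM, was applied in Tris-HCl pH 7.5 buffer with KCl, MgCl2, BSA, DTT, tRNA and Tween-20. Each step lasted 0.8–1.5 h at the bottom of the series and 10–20 min at the top. Normalised cluster fluorescence was curve-fitted, giving apparent KD as the per-design median over clusters.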

Setting [1] is: input ligand: microRNA oligo, concentration not stated.
Where [2] appears, read: Eterna round: R95, input ligand: FMN 200 uM.
Where [3] appears, read: Eterna round: R95, input ligand: microRNA oligo, concentration not stated.
Setting [4] is: Eterna round: R95, input ligand: none.

As to “GGAGCCGGCACUGAGGAUAUUCAUAUUAAAACAUGAGGAUCACCCAUGUAGGCCAGAAGGCCUUGGGAGAAGGCAGGUCGGCCCG [Bibimaor] (Eterna round: R96, puzzle: Same State 2)”, the “apparent KD of MS2 coat protein” value was 0.0217 µM (input ligand: FMN 200 uM), 0.25 µM under setting [1] and 0.311 µM (input ligand: none).
As for “GGAGCCGGCACUGAGGAUAUUCAUAUUAAAACAUGAGGAUCACCCAUGUGGGCCAGAAGGCCUUGGGAGAAGGCAGGUCGACUCG [Diqureveri - 3] (puzzle: Same State 2)”, the “apparent KD of MS2 coat protein” value by setting is: under setting [2], 0.0185 µM; under setting [3], 0.145 µM; under setting [4], 0.243 µM.
With “GGAGCCGGCACUGAGGAUAUUCAUAUUUAAACAUGAGGAUCACCCAUGUAGGCCAGAAGGCCUUGGGAGAAGGCAGGUCGGCUCG [salish99_ss2_r3_076] (puzzle: Same State 2)”, the “apparent KD of MS2 coat protein” value is, setting by setting: under setting [2], 0.026 µM; under setting [3], 0.216 µM; under setting [4], 0.493 µM.
On to “GGAGCCGGCCUAGGAUAUUUCAUAAACAAACAUGAGGAUCACCCAUGUAGGCCAGAAGGCCUUGGGAAGAAGGAGGUCGGCUCC [Loop Effect - C27] (Eterna round: R96, puzzle: Same State NG 2)”, for which the “apparent KD of MS2 coat protein” value by setting is: (input ligand: FMN 200 uM) 0.0221 µM; under setting [1], 0.0322 µM; (input ligand: none) 0.0452 µM.
For “GGAGCCGGCCUAGGAUAUUUCAUAAAUAAACAUGAGGAUCACCCAUGUAGGCCAGAAGGCCUUGGGAAGAAGGAGGUCGGCUCC [Loop Effect - U27] (Eterna round: R96, puzzle: Same State NG 2)”, the “apparent KD of MS2 coat protein” value turned out to be 0.00958 µM (input ligand: FMN 200 uM), 0.0302 µM under setting [1] and 0.0339 µM (input ligand: none).
For “GGAGCCGGCCUAGGAUAUUUCAUAAUUAAACAUGAGGAUCACCCAUGUAGGCCAGAAGGCCUUGGGAAGAAGGAGGUCGGCUCC [Loop Effect - U26,U27] (Eterna round: R96, puzzle: Same State NG 2)”, in that order: 0.0125 µM, 0.039 µM and 0.0823 µM.
Regarding “GGAGCCGGCCUAGGAUAUUUCAUUAAAAAACAUGAGGAUCACCCAUGUAGGCCAGAAGGCCUUGGGAAGAAGGAGGUCGGCUCC [Loop Effect - U24] (Eterna round: R96, puzzle: Same State NG 2)”, the “apparent KD of MS2 coat protein” value runs as follows: (input ligand: FMN 200 uM) 0.0127 µM; under setting [1], 0.0162 µM; (input ligand: none) 0.0246 µM.
Turning to “GGAGCCGGCCUAGGAUAUUUCAUUAAAUAACAUGAGGAUCACCCAUGUAGGCCAGAAGGCCUUGGGAAGAAGGAGGUCGGCUCC [Loop Effect - U24,U28] (Eterna round: R96, puzzle: Same State NG 2)”, the “apparent KD of MS2 coat protein” value is, setting by setting: (input ligand: FMN 200 uM) 0.0122 µM; under setting [1], 0.035 µM; (input ligand: none) 0.0463 µM.
Regarding “GGAGCCGGUACUGAGGAUAUUCAUAUUAAAACAUGAGGAUCACCCAUGUAGGCCAGAAGGCCUUGGGAGAAGGCGGAUCGGCUCC [Biseusra - 2] (puzzle: Same State 2)”, the “apparent KD of MS2 coat protein” value was 0.022 µM under setting [2], 0.18 µM under setting [3] and 0.417 µM under setting [4].
In the case of “GGAGGACAUGAGGAUCACCCAUGUGGAUGGGCGCUAGGAUAUGCGAGAGGGAAGAGUGGAGCAGAAGGAGUGGGUU [JR_SS1_Sub044] (puzzle: Same State 1)”, the “apparent KD of MS2 coat protein” value under setting [3] turned out to be 0.04 µM.
As for “GGAUGAUGGACAGGAUAUUGAUUGUAAUGGUGUCAAGAAGGGUCUUUGAUUUAAACGACCAGUUACAUGAGGAUCACCCAUGUU [JR_SSNG1_Sub031] (Eterna round: R96, puzzle: Same State NG 1)”, the “apparent KD of MS2 coat protein” value came out at 0.133 µM (input ligand: FMN 200 uM), 0.107 µM under setting [1] and 0.205 µM (input ligand: none).
“GGCAAUCGCAUUCGAUUGCCUGAGCAUGUACAUGAGGAUCACCCAUGUCAUGUACAGGCUUUUUGCUCGUACUUAUA (puzzle: Sensor for hsa-mir-208a)”: the “apparent KD of MS2 coat protein” value by setting is: under setting [2], 0.0916 µM; under setting [3], 0.0149 µM; under setting [4], 0.135 µM.
For the sequence “GGCCUGAGUCAAGGAUAUGCUACCGUUUCGGUAGCAGAAGGUGAUCACAUGAGGAUCACCCAUGUUUACGCGAAGACGCGCGCC (Eterna round: R96, puzzle: Same State NG 1)”, the “apparent KD of MS2 coat protein” value is 0.128 µM (input ligand: FMN 200 uM), 0.0567 µM under setting [1] and 0.0357 µM (input ligand: none).
“GGCUAUCGCAUUCGAUAGCCUGAGCAUGUACAUGAGGAUCACCCAUGUCAUGUACAGGCUUUUUGCUCGUACUUAUA (puzzle: Sensor for hsa-mir-208a)”: the “apparent KD of MS2 coat protein” value by setting is: under setting [2], 0.071 µM; under setting [3], 0.0136 µM; under setting [4], 0.0934 µM.
Regarding “GGGAGACAUGAGGAUCACCCAUGUGAGAAGAGGCGAGGAUAUCGAAAAAAAAAAAAAAAACGAGAAGGCGCGAGAU [salish99-SS1-004] (Eterna round: R96, puzzle: Same State 1)”, the “apparent KD of MS2 coat protein” value was determined as 0.0435 µM (input ligand: FMN 200 uM), 0.133 µM under setting [1] and 0.115 µM (input ligand: none).
For “GGGCCAACGAGCGAGGAUAUGGCCUCGGACACAUGAGGAUCACCCAUGUCGAAAAGGUCAGGAGGCUAGAAGGCGUAAAAUGCCA [Tiqusoor] (puzzle: Same State 2)”, the “apparent KD of MS2 coat protein” value by setting is: under setting [2], 0.0117 µM; under setting [3], 0.0108 µM; under setting [4], 0.0131 µM.
Regarding “GGUAGGUUACUACCAAUCACAUGAGGAUCACCCAUGUUUUGGGAGGAUAUGGUACCUAUUUGGUACCAGAAGGCCUUAUUAAUU [Fiskers NG3ss - 12] (Eterna round: R96, puzzle: Same State NG 3)”, the “apparent KD of MS2 coat protein” value runs as follows: (input ligand: FMN 200 uM) 0.0636 µM; under setting [1], 0.0362 µM; (input ligand: none) 0.0653 µM.
“GGUCCAGCCUGAGCUGGACAAAAGCAUGUACAUGAGGAUCACCCAUGUCAUGUACAAGCUUUUUGCUCGUCUUAAUU [Mat - hsa-mir-208a - 87] (puzzle: Sensor for hsa-mir-208a)”: the “apparent KD of MS2 coat protein” value reads like this: under setting [2], 0.514 µM; under setting [3], 0.0151 µM; under setting [4], 0.762 µM.
In the case of “GGUCCAGCCUGAGCUGGACAAAAGCAUGUACAUGAGGAUCACCCAUGUUCAUGUACAAGCUUUUUGCUCGUCUUAAC [salish99_208a_r3_038] (puzzle: Sensor for hsa-mir-208a)”, the “apparent KD of MS2 coat protein” value reads like this: under setting [2], 0.53 µM; under setting [3], 0.0169 µM; under setting [4], 0.647 µM.
Take “GGUCCAGCCUGAGCUGGACAAAGGCAUGUACAUGAGGAUCACCCAUGUCAUGUACAAGCUUUUUGCUCGUCUUAAAA [JL mod - D87 - 3] (puzzle: Sensor for hsa-mir-208a)”: the “apparent KD of MS2 coat protein” value stood at 0.168 µM under setting [2], 0.0138 µM under setting [3] and 0.22 µM under setting [4].
As to “GGUCGGAACCACAUGAGGAUCACCCAUGUUCCGGAAACGGUACAGGAUAUCUGUCCGAAAAGGUCAGAGAAGGGUGAACCGACC [Fiskers NG3ss - 77] (Eterna round: R96, puzzle: Same State NG 3)”, the “apparent KD of MS2 coat protein” value (input ligand: FMN 200 uM) came out at 1.09 µM, the “apparent KD of MS2 coat protein” value under setting [1] worked out at 0.349 µM and the “apparent KD of MS2 coat protein” value (input ligand: none) worked out at 0.312 µM.
The corresponding values for “GGUCGGACCUACAUGAGGAUCACCCAUGUUCCGGAAACGGCACAGGAUAUCUGUCCGAAAAGGUCAGAGAAGGGUGAACCGACC [Fiskers NG3ss - 75] (Eterna round: R96, puzzle: Same State NG 3)” are 1 µM, 0.508 µM and 1.88 µM.
As to “GGUCGGUCCAACAUGAGGAUCACCCAUGUACCGGAAACGGCAUAGGAUAUCUGUCCGAAAAGGUCAGAGAAGGGUGAACCGACC [Fiskers NG3ss - 72] (Eterna round: R96, puzzle: Same State NG 3)”, the “apparent KD of MS2 coat protein” value is 0.421 µM (input ligand: FMN 200 uM), 0.586 µM under setting [1] and 0.229 µM (input ligand: none).
For the sequence “GGUGCAAUAAACGCCUACAUGAGGAUCACCCAUGUAUGUAGGCAGGAUAUCGUUUGCAAAGCAAACGAGAAGGGCUGUAGUACC [Mat - Same State NG 3 - JL Mod - D41] (Eterna round: R96, puzzle: Same State NG 3)”, the “apparent KD of MS2 coat protein” value was found to be 0.0515 µM (input ligand: FMN 200 uM), 0.0823 µM under setting [1] and 0.142 µM (input ligand: none).
Consider “GGUGCCAAUAAAGCCUACAUGAGGAUCACCCAUGUAUGUAGGCAGGAUAUCGUAUGCAAAGCAUACGAGAAGGGCCGAGGCACC [Mat - Same State NG 3 - JL Mod - D56] (Eterna round: R96, puzzle: Same State NG 3)”, for which the “apparent KD of MS2 coat protein” value turned out to be 0.0187 µM (input ligand: FMN 200 uM), 0.0291 µM under setting [1] and 0.037 µM (input ligand: none).
Consider “GGUGCGAAUAAAGCCUACAUGAGGAUCACCCAUGUAUGUAGGCAGGAUAUCGUUUGCAAAGCAAACGAGAAGGGCUGACGCACC [Mat - Same State NG 3 - JL Mod - D49] (Eterna round: R96, puzzle: Same State NG 3)”, for which the “apparent KD of MS2 coat protein” value (input ligand: FMN 200 uM) came out at 0.0293 µM, the “apparent KD of MS2 coat protein” value under setting [1] stood at 0.0457 µM and the “apparent KD of MS2 coat protein” value (input ligand: none) was 0.0624 µM.
Regarding “GUAAAACAUGAGGAUCACCCAUGUAAUAAUAUGGGAGGAUAUCAGAAUGUAUGUAUGUAAUGAGAAGGCCUAAAUU [Mat - Same State 1 - Mod of Eli - D75] (puzzle: Same State 1)”, the “apparent KD of MS2 coat protein” value by setting is: under setting [2], 0.0734 µM; under setting [3], 0.61 µM; under setting [4], 0.695 µM.

Values taken from the supplement of paper PMC9170038.
